Results taken from US20180142226.
Where a chain is given by its changes, count along the chain named. Numbers in names are those of the source.

T1: PFPQPQLPY peptide
T1 chain: PFPQPQLPY

T2: PFPQPQQPF peptide
T2 chain: PFPQPQQPF

B1: Kuma011-I463Q (protein)
chain: AAPTAYTPLDVAQAYQFPEGLDGQGQCIAIIELGGGYDEASLAQYFASLGVPAPQVVSVSVDGASNQPTGDPKGPDGEVELDIEVAGALAPGAKFAVYFAPDTTAGFLDAITTAIHDPTLKPSVVSISWSGPEDSWTSAAIAAMNRAFLDAAALGVTVLAAAGDSGSTGGEQDGLYHVHFPAASPYVLACGGTRLVASGGRIAQETVWNDGPDGGATGGGVSRIFPLPAWQEHANVPPSANPGASSGRGVPDLAGNADPATGYEVVIDGEATVQGGTSAVAPLFAALVARINQKLGKAVGYLNPTLYQLPADVFHDITEGNNDIANRAQIYQAGPGWDPCTGLGSPIGVRLLQALLPSASQPQ
B2: Kuma011-I463R (protein)
chain: B1 chain with Q274R
B3: Kuma011-I463T (protein)
chain: B1 chain with Q274T
B4: Kuma011-I463V (protein)
chain: B1 chain with Q274V
B5: Kuma010/011 E221D (protein)
chain: B1 chain with E32D, Q274I
B6: Kuma010/011 E221N (protein)
chain: B1 chain with E32N, Q274I
B7: Kuma010/011 E221Q (protein)
chain: B1 chain with E32Q, Q274I
B8: Kuma010/011 E221H (protein)
chain: B1 chain with E32H, Q274I
B9: Kuma011-K262E (protein)
chain: B1 chain with K73E, Q274I
B10: Kuma011-V268A (protein)
chain: B1 chain with V79A, Q274I
B11: Kuma011-V268S (protein)
chain: B1 chain with V79S, Q274I
B12: Kuma011-V268T (protein)
chain: B1 chain with V79T, Q274I
B13: Kuma011-E269L (protein)
chain: B1 chain with E80L, Q274I
B14: Kuma011-E269T (protein)
chain: B1 chain with E80T, Q274I
B15: Kuma011-L270A (protein)
chain: B1 chain with L81A, Q274I
B16: Kuma011-L270T (protein)
chain: B1 chain with L81T, Q274I
B17: Kuma011-L270V (protein)
chain: B1 chain with L81V, Q274I
B18: Kuma010/011 S319A (protein)
chain: B1 chain with S130A, Q274I
B19: Kuma011-S354A (protein)
chain: B1 chain with S165A, Q274I
B20: Kuma011-S354E (protein)
chain: B1 chain with S165E, Q274I
B21: Kuma011-S354Q (protein)
chain: B1 chain with S165Q, Q274I
B22: Kuma011-S354R (protein)
chain: B1 chain with S165R, Q274I
B23: Kuma011-S354Y (protein)
chain: B1 chain with S165Y, Q274I
B24: Kuma011-G358N (protein)
chain: B1 chain with G169N, Q274I
B25: Kuma011-G358S (protein)
chain: B1 chain with G169S, Q274I
B26: Kuma011-G358Q (protein)
chain: B1 chain with G169Q, Q274I
B27: Kuma011-G358T (protein)
chain: B1 chain with G169T, Q274I
B28: Kuma011-H368F (protein)
chain: B1 chain with H179F, Q274I
B29: Kuma011-H368Q (protein)
chain: B1 chain with H179Q, Q274I
B30: Kuma011-D399Q (protein)
chain: B1 chain with D210Q, Q274I
B31: Kuma011-D402S (protein)
chain: B1 chain with D213S, Q274I
B32: Kuma011-N424K (protein)
chain: B1 chain with N235K, Q274I

Biological target: T1, PFPQPQLPY peptide

Protein | % Improvement on PFPQPQLPY (SEQ ID NO: 67) [%]
B1 | 129
B2 | 29
B3 | 130
B4 | 256
B5 | 105
B6 | 105
B7 | 105
B8 | 105
B9 | 109
B10 | 107
B11 | 104
B12 | 127
B13 | 113
B14 | 263
B15 | 203
B16 | 307

Protein | % Improvement on PFPQPQLPY (SEQ ID NO: 67) [%]
B17 | 474
B18 | 154
B19 | 152
B20 | 124
B21 | 145
B22 | 109
B23 | 46
B24 | 120
B25 | 331
B26 | 147
B27 | 283
B28 | 334
B29 | 199
B30 | 149
B31 | 94
B32 | 285

Biological target: T2, PFPQPQQPF peptide

Protein | % Improvement on PFPQPQQPF (SEQ ID NO: 68) [%]
B1 | 69
B2 | 110
B3 | 239
B4 | 141
B9 | 110
B10 | 89
B11 | 83
B12 | 105
B13 | 84
B14 | 191
B15 | 92
B16 | 29
B17 | 61
B18 | 184
B19 | 140
B20 | 120
B21 | 141
B22 | 82
B23 | 105
B24 | 99
B25 | 224
B26 | 149
B27 | 128
B28 | 104
B29 | 195
B30 | 208
B31 | 108
